Source: publication PMC2018632 (Nucleic Acids Research, 2007)

Molecular target: T1, Escherichia coli uracil-DNA glycosylase (Escherichia coli, UniProt P12295 1-229)
T1 sequence: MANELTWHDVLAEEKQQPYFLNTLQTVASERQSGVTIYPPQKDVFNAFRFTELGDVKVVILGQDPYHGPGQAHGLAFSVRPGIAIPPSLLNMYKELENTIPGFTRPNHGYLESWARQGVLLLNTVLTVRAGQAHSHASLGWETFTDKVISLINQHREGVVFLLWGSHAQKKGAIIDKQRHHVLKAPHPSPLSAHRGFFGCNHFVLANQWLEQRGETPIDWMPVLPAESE
Assay: native gel or EMSA

B1: Ugi from the Bacillus subtilis phage PBS2 (natural protein)
chain: MTNLSDIIEKETGKQLVIQESILMLPEEVEEVIGNKPESDILVHTAYDESTDENVMLLTSDAPEYKPWALVIQDSNGENKIKML
B1: binds.
